Experimental data as given in the supplement of paper PMC10567573.

B1: PSD2 (parent)
chain: LTHFSRRYCQCNPDDSTSEDGIHT

Variants of: B1
Assay: protein stability index of a GFP-peptide fusion (GPS, HEK-293T) (PSI 1-6); higher = more stable
Conditions: c terminus: a fixed tail appended
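Also: lentivirally expressed fusions sorted by FACS into six bins by GFP to DsRed ratio, PSI derived from sequencing read proportions per bin multiplied by bin number.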

Row | Variant | protein stability index
1 | LTHFSRWYCQCNPDDSTSEDGIHT [R7W] | 2.32
2 | LTHFSRPYCQCNPDDSTSEDGIHT [R7P] | 4.46
3 | LTHFSRVYCQCNPDDSTSEDGIHT [R7V] | 3.13
4 | LTHFSRLYCQCNPDDSTSEDGIHT [R7L] | 3.74
5 | LTHFSRKYCQCNPDDSTSEDGIHT [R7K] | 3.53
6 | LTHFSRRYCQCEPDDSTSEDGIHT [N12E] | 4
7 | LTHFSRRYCQCHPDDSTSEDGIHT [N12H] | 3.67
8 | LTHFSRRYCQCWPDDSTSEDGIHT [N12W] | 3.13
9 | LTHFSRRYCQCNPDDSTSEQGIHT [D20Q] | 2.61
10 | LTHFSRRYCQCNPDDSTSERGIHT [D20R] | 2.27
11 | LTHFSRRYCQCNPDDSTSECGIHT [D20C] | 3.98
12 | LTHFSRRYCQCNPDDSTSEPGIHT [D20P] | 2.35
13 | LTHFSRRYCQCNPDDSTSEWGIHT [D20W] | 1.46
14 | LTHFSRRYCQCNPDDSTSEGGIHT [D20G] | 2.71
15 | LTHFSRRYCQCNPDVSTSEDGIHT [D15V] | 2.47
16 | LTHFSRRYCQCNPDMSTSEDGIHT [D15M] | 3.21
17 | LTHFSRRYCQCNPDDSTSLDGIHT [E19L] | 2.15
18 | LTHFSRRYCQCNPDDSTSIDGIHT [E19I] | 2.2
19 | LTHFSRRYCQCNPDDSTSYDGIHT [E19Y] | 1.93
20 | PTHFSRRYCQCNPDDSTSEDGIHT [L1P] | 3.96
21 | DTHFSRRYCQCNPDDSTSEDGIHT [L1D] | 4.21
22 | ATHFSRRYCQCNPDDSTSEDGIHT [L1A] | 3.56
23 | CTHFSRRYCQCNPDDSTSEDGIHT [L1C] | 3.89
24 | STHFSRRYCQCNPDDSTSEDGIHT [L1S] | 3.7

Row | Variant | protein stability index
25 | HTHFSRRYCQCNPDDSTSEDGIHT [L1H] | 3.66
26 | VTHFSRRYCQCNPDDSTSEDGIHT [L1V] | 3.77
27 | LTHFSRRYCQCNPDDSTAEDGIHT [S18A] | 3.7
28 | LTHFSRRYCQCNPDDSTEEDGIHT [S18E] | 3.17
29 | LTHFSRRYCQCNPDDSTWEDGIHT [S18W] | 2.28
30 | LTHFSRRYCQCNPDDSTREDGIHT [S18R] | 1.89
31 | LTHFSRRYCQCNPDDSTPEDGIHT [S18P] | 3.58
32 | LTHFSRRYCQCNPDDSTFEDGIHT [S18F] | 2.63
33 | LTHFSRRYCQCNPDDSTIEDGIHT [S18I] | 2.99
34 | LTHFSCRYCQCNPDDSTSEDGIHT [R6C] | 2.8
35 | LTHFSVRYCQCNPDDSTSEDGIHT [R6V] | 3.08
36 | LTHFSWRYCQCNPDDSTSEDGIHT [R6W] | 2.95
37 | LTHFSRRYCVCNPDDSTSEDGIHT [Q10V] | 2.9
38 | LTHFSRRYCICNPDDSTSEDGIHT [Q10I] | 1.97
39 | LTHFSRRYCFCNPDDSTSEDGIHT [Q10F] | 2.25
40 | LTHFSRRYCSCNPDDSTSEDGIHT [Q10S] | 2.55
41 | LTHFSRRYCQCNPDDSLSEDGIHT [T17L] | 2.66
42 | LTHFSRRYCQCNPDDSQSEDGIHT [T17Q] | 3.89
43 | LTHFSRRYCQCNPDDSDSEDGIHT [T17D] | 4.02
44 | LTHPSRRYCQCNPDDSTSEDGIHT [F4P] | 4.18
45 | LTHSSRRYCQCNPDDSTSEDGIHT [F4S] | 3.61
46 | LTHHSRRYCQCNPDDSTSEDGIHT [F4H] | 4.51
47 | LTHCSRRYCQCNPDDSTSEDGIHT [F4C] | 3.38
48 | LTHESRRYCQCNPDDSTSEDGIHT [F4E] | 4.55

Row | Variant | protein stability index
49 | LTHFSRRYCQCNPDDSTSEDGYHT [I22Y] | 3.29
50 | LTHFSRRYCQCNPDDSTSEDGWHT [I22W] | 2.43
51 | LTHFSRRYCQCNPDDSTSEDGTHT [I22T] | 3.59
52 | LTHFSRRYCQCNPDDSTSEDGKHT [I22K] | 3.12
53 | LTHFSRRKCQCNPDDSTSEDGIHT [Y8K] | 3.66
54 | LTHFSRRWCQCNPDDSTSEDGIHT [Y8W] | 2.36
55 | LTHFSRRCCQCNPDDSTSEDGIHT [Y8C] | 3.01
56 | LTHFSRRECQCNPDDSTSEDGIHT [Y8E] | 5.36
57 | LTHFSRRYCQCNPDDSTSEDGIHE [T24E] | 4.08
58 | LTHFSRRYCQCNPDDSTSEDGIHK [T24K] | 2.61
59 | LTHFSRRYCQCNPDDSTSEDGIHV [T24V] | 3.36
60 | LTHFSRRYCQCNPDDTTSEDGIHT [S16T] | 2.94
61 | LTHFSRRYCQCNPDDETSEDGIHT [S16E] | 3.96
62 | LTHFSRRYCQCNPDDWTSEDGIHT [S16W] | 1.77
63 | LTHFSRRYCQCNPDDLTSEDGIHT [S16L] | 3.15
64 | LTHFSRRYCQGNPDDSTSEDGIHT [C11G] | 4.56
65 | LTHFSRRYCQRNPDDSTSEDGIHT [C11R] | 4.18
66 | LTHFSRRYCQFNPDDSTSEDGIHT [C11F] | 3.12
67 | LTHFSRRYCQSNPDDSTSEDGIHT [C11S] | 4.61
68 | LTHFSRRYCQCNPDDSTSEDVIHT [G21V] | 2.79
69 | LTHFSRRYCQCNPQDSTSEDGIHT [D14Q] | 2.54
70 | LTHFSRRYCQCNPADSTSEDGIHT [D14A] | 2.09
71 | LTHFSRRYCQCNPWDSTSEDGIHT [D14W] | 1.59
72 | LTHFSRRYCQCNPIDSTSEDGIHT [D14I] | 2.08

Row | Variant | protein stability index
73 | LTHFSRRYCQCNPYDSTSEDGIHT [D14Y] | 1.99
74 | LTHFSRRYCQCNPTDSTSEDGIHT [D14T] | 2.13
75 | LTHFSRRYPQCNPDDSTSEDGIHT [C9P] | 4.64
76 | LTHFSRRYFQCNPDDSTSEDGIHT [C9F] | 3.83
77 | LTHFSRRYSQCNPDDSTSEDGIHT [C9S] | 4.78
78 | LTHFSRRYYQCNPDDSTSEDGIHT [C9Y] | 4.06
79 | LTHFSRRYCQCNPDDSTSEDGIST [H23S] | 4.2
80 | LTWFSRRYCQCNPDDSTSEDGIHT [H3W] | 2.16
81 | LTDFSRRYCQCNPDDSTSEDGIHT [H3D] | 4.38
82 | LTAFSRRYCQCNPDDSTSEDGIHT [H3A] | 3.54
83 | LTFFSRRYCQCNPDDSTSEDGIHT [H3F] | 2.16
84 | LTIFSRRYCQCNPDDSTSEDGIHT [H3I] | 2.83
85 | LTNFSRRYCQCNPDDSTSEDGIHT [H3N] | 3.55
86 | LTMFSRRYCQCNPDDSTSEDGIHT [H3M] | 2.62
87 | LTHFSRRYCQCNSDDSTSEDGIHT [P13S] | 2.84
88 | LTHFSRRYCQCNMDDSTSEDGIHT [P13M] | 3.2
89 | LTHFSRRYCQCNIDDSTSEDGIHT [P13I] | 2.68
90 | LTHFNRRYCQCNPDDSTSEDGIHT [S5N] | 3.69
91 | LTHFRRRYCQCNPDDSTSEDGIHT [S5R] | 2.53
92 | LTHFGRRYCQCNPDDSTSEDGIHT [S5G] | 3.78
93 | LTHFARRYCQCNPDDSTSEDGIHT [S5A] | 3.43
94 | LTHFDRRYCQCNPDDSTSEDGIHT [S5D] | 4.38
